Reference: article PMC3580866

How the values were obtained:
[1] = target: human SLBP (hSLBP), Stem-Loop Binding Protein RNA binding domain (RBD/RPD) (UniProt Q14493); test: mass spectrometry of oligomer peaks; conditions: reference: bacterially expressed unphosphorylated RBD; sites T171
[2] = target: human SLBP RNA binding domain, phosphorylated at Thr171, baculovirus expressed (human); test: electrospray mass spectrometry
[3] = target: human SLBP RNA binding domain, unphosphorylated, bacterially expressed (human); test: MALDI-TOF mass spectrometry

Substance: human SLBP (hSLBP), Stem-Loop Binding Protein RNA binding domain (RBD/RPD) (from UniProt Q14493) baculovirus-expressed phosphorylated RBD
- other: percent of mass as dimer [1]: weaker; reference 35.3

Substance: human SLBP RNA binding domain, phosphorylated at Thr171, baculovirus expressed (domain or fragment)
- percent of the mass spectrum as dimer [2]: 5.6%
- percent of the mass spectrum as tetramer [2]: 3.8%
- percent of the mass spectrum as trimer [2]: 3.9%

Substance: human SLBP RNA binding domain, unphosphorylated, bacterially expressed (domain or fragment)
- percent of the mass spectrum as dimer [3]: 35.3%
- percent of the mass spectrum as hexamer [3]: 9.7%
- percent of the mass spectrum as tetramer [3]: 12.4%
- percent of the mass spectrum as trimer [3]: 9.9%
